The record followed here is paper PMC6057269, “A Flat BAR Protein Promotes Actin Polymerization at the Base of Clathrin-Coated Pits” (Cell, 2018).

Series [1] deals with the molecule itself. Briefly: SEC-MALS; Superdex S-200 10/300, 150 mM NaCl, 20 mM HEPES pH 7.5, 500 μM TCEP; F2B12 at two concentrations. A general note: SEC sorts molecules by how far they enter the pores of the column.
Series [2] deals with the molecule itself. The series can be described thus: cryo-EM structure; single particle cryo-EM of F2B1 at 0.15-0.3 mg/ml; C2 symmetry applied; 9.2 Å reconstruction.
Series [3] has as its target T1, ITSN1 SH3d (aa1076-1138), recombinant (human, UniProt Q15811-1 1076-1138).
T1 construct: Intersectin 1 long form (ITSN1L), human, fourth SH3 domain (SH3d), residues 1076-1138; The purification of this protein is not described; the tag was probably cleaved as for the FCHSD2 proteins (surmised); also called pOPINS-ITSN1-SH3d; source: E. coli, 6xHis-SUMO construct (pOPINS)
T1 sequence (looked up): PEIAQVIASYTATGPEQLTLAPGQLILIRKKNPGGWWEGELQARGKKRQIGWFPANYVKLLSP
Briefly: pull-down; GST-tagged SH3 domains on glutathione beads incubated with recombinant protein for 10 min at room temperature, 6 washes; Coomassie stained gel. Particulars: both partners purified.

Series [4] deals with T1, ITSN1 SH3d (aa1076-1138), recombinant. The series can be described thus: ITC; isothermal titration calorimetry of FCHSD2 SH3-2 and ITSN1 SH3d; conditions and direction of titration not told. Particulars: both partners purified. A general note: In ITC the heat of successive injections is recorded.
The target of series [5] is T2, GST-tagged ITSN1 SH3d (aa1076-1138) T1086A (human, UniProt Q15811-1 1076-1138, T1086A).
T2 construct: Intersectin 1 long form (ITSN1L), human, SH3d, residues 1076-1138; also called crystal contact control mutant T1086; not shown: GST, N-terminal, kept
T2 sequence (looked up): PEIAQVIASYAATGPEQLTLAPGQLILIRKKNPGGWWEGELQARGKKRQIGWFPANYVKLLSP
The series can be described thus: pull-down; GST-tagged SH3 domains on glutathione beads incubated with recombinant protein for 10 min at room temperature, 6 washes; Coomassie stained gel. Particulars: both partners purified.

B1: FCHSD2 BAR + SH3-1 + SH3-2 (F2B12: aa1-629) (domain or fragment, human, UniProt O94868-1 1-629, looked up)
chain: MQPPPRKVKVTQELKNIQVEQMTKLQAKHQAECDLLEDMRTFSQKKAAIEREYAQGMQKLASQYLKRDWPGVKADDRNDYRSMYPVWKSFLEGTMQVAQSRMNICENYKNFISEPARTVRSLKEQQLKRCVDQLTKIQTELQETVKDLAKGKKKYFETEQMAHAVREKADIEAKSKLSLFQSRISLQKASVKLKARRSECNSKATHARNDYLLTLAAANAHQDRYYQTDLVNIMKALDGNVYDHLKDYLIAFSRTELETCQAVQNTFQFLLENSSKVVRDYNLQLFLQENAVFHKPQPFQFQPCDSDTSRQLESETGTTEEHSLNKEARKWATRVAREHKNIVHQQRVLNDLECHGAAVSEQSRAELEQKIDEARENIRKAEIIKLKAEARLDLLKQIGVSVDTWLKSAMNQVMEELENERWARPPAVTSNGTLHSLNADTEREEGEEFEDNMDVFDDSSSSPSGTLRNYPLTCKVVYSYKASQPDELTIEEHEVLEVIEDGDMEDWVKARNKVGQVGYVPEKYLQFPTSNSLLSMLQSLAALDSRSHTSSNSTEAELVSGSLNGDASVCFVKALYDYEGQTDDELSFPEGAIIRILNKENQDDDGFWEGEFNGRIGVFPSVLVEELSA
notes: FCHSD2, human, F-BAR + SH3-1 + SH3-2, residues 1-629; also called FCHSD2 (F2B12 construct); source: E. coli Rosetta (DE3), purified (HisTrap, anion exchange, Sumo protease, Superdex 200); not shown: His-SUMO, N-terminal, cleaved
With B1, the stoichiometry N (usually a count of units in the complex or per binding partner) in series [1] turned out to be 2.

B2: FCHSD2 BAR + SH3-1 (F2B1: aa1-530) (domain or fragment, human, UniProt O94868-1 1-530, looked up)
chain: MQPPPRKVKVTQELKNIQVEQMTKLQAKHQAECDLLEDMRTFSQKKAAIEREYAQGMQKLASQYLKRDWPGVKADDRNDYRSMYPVWKSFLEGTMQVAQSRMNICENYKNFISEPARTVRSLKEQQLKRCVDQLTKIQTELQETVKDLAKGKKKYFETEQMAHAVREKADIEAKSKLSLFQSRISLQKASVKLKARRSECNSKATHARNDYLLTLAAANAHQDRYYQTDLVNIMKALDGNVYDHLKDYLIAFSRTELETCQAVQNTFQFLLENSSKVVRDYNLQLFLQENAVFHKPQPFQFQPCDSDTSRQLESETGTTEEHSLNKEARKWATRVAREHKNIVHQQRVLNDLECHGAAVSEQSRAELEQKIDEARENIRKAEIIKLKAEARLDLLKQIGVSVDTWLKSAMNQVMEELENERWARPPAVTSNGTLHSLNADTEREEGEEFEDNMDVFDDSSSSPSGTLRNYPLTCKVVYSYKASQPDELTIEEHEVLEVIEDGDMEDWVKARNKVGQVGYVPEKYLQFPTS
notes: FCHSD2, human, F-BAR + SH3-1, residues 1-530; also called FCHSD2 F-BAR+SH3-1; source: E. coli Rosetta (DE3), purified (HisTrap, anion exchange, Sumo protease, Superdex 200); not shown: His-SUMO, N-terminal, cleaved
As to B2, the binding result in series [2] is “binds”.

B3: GST-tagged FCHSD2 SH3-2 (aa568-629) N613A (domain or fragment, human, UniProt O94868-1 568-629, looked up)
chain: SVCFVKALYDYEGQTDDELSFPEGAIIRILNKENQDDDGFWEGEFAGRIGVFPSVLVEELSA
notes: FCHSD2, human, second SH3 domain, residues 568-629; also called crystal contact control mutant N613; not shown: GST, N-terminal, kept
Consider B3, for which, in series [3], the binding result is “binds”.

B4: FCHSD2 SH3-2 (aa568-629), recombinant (domain or fragment, human, UniProt O94868-1 568-629, looked up)
chain: SVCFVKALYDYEGQTDDELSFPEGAIIRILNKENQDDDGFWEGEFNGRIGVFPSVLVEELSA
notes: FCHSD2, human, second SH3 domain, residues 568-629; that the same preparation was the prey of the GST pull-downs and the ITC sample is surmised; also called pOPINS-FCHSD2 SH3-2; F2S2; source: E. coli Rosetta (DE3), purified (HisTrap, anion exchange, Sumo protease, Superdex 200); not shown: His-SUMO, N-terminal, cleaved
As for B4, in series [4], the Kd (in general, the constant that tells how readily two partners part at equilibrium) was 248 nM and the “stoichiometry N” value was approximately 1. For the same molecule, the binding result in series [5] was “binds”.

B5: GST-tagged FCHSD2 SH3-2 (aa568-629) D583A (domain or fragment, human, UniProt O94868-1 568-629, looked up)
chain: SVCFVKALYDYEGQTADELSFPEGAIIRILNKENQDDDGFWEGEFNGRIGVFPSVLVEELSA
notes: FCHSD2, human, second SH3 domain, residues 568-629; also called crystal contact control mutant D583; not shown: GST, N-terminal, kept
With B5, in series [3], the binding result is recorded as “binds”.
